The source of these data is PMC11367644, “Structural basis for TNIP1 binding to FIP200 during mitophagy” (The Journal of Biological Chemistry, 2024).

Where two headings read alike, the source gives them in different places. Square brackets hold non-standard residues; d marks the D form. Ends that are not written are not given here. Peptide text beside a SMILES is read from it. pS = N[C@@H](COP(=O)(O)O)C(=O)O

The Kd is a measure of binding affinity in units of concentration. By stoichiometry N is commonly meant the number of molecules, sites or subunits per partner or assembly.

The target in data set [1] is T1, FIP200 claw domain (WT) (Homo sapiens, UniProt Q8TDY2).
T1 construct: human FIP200 claw domain1490–1594 was cloned; SUMO (N, cleaved yes); made in house; host or cells: Escherichia coli Rosetta (DE3)
Nature of the data set: ITC of TNIP1/CCPG1 FIR peptides with FIP200 claw domain WT. The conditions noted are these: FIP200 claw WT 0.25 mM, peptide 4 mM, 20 °C, buffer B (50 mM NaH2PO4, 150 mM NaCl, pH 7.0), single binding site model, fitted value ± SD, N.D. = no detectable binding. As to the method:
(§1) DNA fragment of human FIP200 claw domain1490–1594 was cloned into a modified pET28a (Novagen) plasmid, which contained an N-terminal SUMO-tag and a ULP1 protease cleavage site. All mutants were generated using a MutanBEST Kit (TaKaRa) and confirmed by DNA sequencing. The proteins were expressed in Escherichia coli Rosetta (DE3) cells (Novagen) cultured in LB medium at 37 °C to A600 = 1.0 and then shifted to 16 °C for 24 h after induction with 0.2 mM IPTG. Bacterial pellets were resuspended in buffer A (50 mM NaH2PO4 and 1 M NaCl, pH 7.0) and lysed by sonication. The crude lysate was then centrifuged at 14,000 rpm for 30 min at 4 °C. The supernatant was applied to a Ni-NTA column (QIAGEN), followed by size-exclusion chromatography using a Superdex 200 (GE Healthcare) column. After cleavage with ULP1 protease overnight at 16 °C to remove the SUMO-tag, an additional purification step was performed with a HiTrap SP FF column. The purified protein was concentrated to ∼20 mg/ml in buffer B (50 mM NaH2PO4, 150 mM NaCl, pH 7.0) and stored at −80 °C.
(§2) ITC assays were performed on a Microcal PEAQ-ITC instrument (Malvern) at 20 °C. The concentrations of proteins were determined spectrophotometrically. […] Thermodynamic data were analyzed with a single binding site model using MicroCal PEAQ-ITC Analysis Software provided by the manufacturer (Malvern).

Data set [2] deals with FIP200 claw domain / p-CCPG1 FIR2 complex. Kind of data set: Competitive fluorescence polarization: displacement of FITC-pCCPG1 FIR2 from FIP200 claw domain. The data set is classed as binding, human. The following applies: fit of Equation 3 to competitive FP data; FIP200 claw 4 μM, 50 nM FITC-pCCPG1 FIR2, buffer B, triplicate. The source says:
Next, we investigated the binding of TNIP1 peptides to FIP200 in distinct states while competing with p-CCPG1 FIR2 peptide. Assuming that in solution, there is a thermodynamic equilibrium as expressed in Equation 1:(1) FIP200−TNIP1_pS123⇆w2u2FIP200⇄w1u1FIP200/p−CCPG1FIR2 where u1 and u2 represent the rates of forming the FIP200/p-CCPG1 FIR2 and FIP200-TNIP1_pS123 binding complexes, respectively, and w1 or w2 is the corresponding dissociation rate, then the probability of forming FIP200/p-CCPG1 FIR2 ( P1 ) can be expressed in the following form:(2) P1=u1w2/w1w2+u1w2+[…]
We further assumed that the binding process is diffusion-controlled, meaning that u1 and u2 are proportional to the concentrations of p-CCPG1 FIR2 and TNIP1_pS123, respectively. In addition, w1 and w2 are determined by the activation barrier in the dissociation free energy profile using the transition state theory. Consequently, the following two relations hold. […]
For competitive FP experiments, FIP200 claw domain at 4 μM and 50 nM FITC-pCCPG1 FIR2 in buffer B were mixed with increasing concentrations of unlabeled TNIP1_FIR^long or TNIP1 FIR_pS123^long peptides, respectively. The samples were measured with the CLARIOsta plate reader with FITC-fluorescence polarization filter set. […]

The target in data set [3] is TNIP1_pS123 peptide. Kind of data set: ITC.
Data set [4] deals with T2, FIP200 claw domain Y1564A (Homo sapiens, UniProt Q8TDY2, Y1564A).
T2 construct: human FIP200 claw domain1490–1594 was cloned; SUMO (N, cleaved yes); made in house; host or cells: Escherichia coli Rosetta (DE3)
T2 sequence (Q8TDY2 1490-1594 Y1564A): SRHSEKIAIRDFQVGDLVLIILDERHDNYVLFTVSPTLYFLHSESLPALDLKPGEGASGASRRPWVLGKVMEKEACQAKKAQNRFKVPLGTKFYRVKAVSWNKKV
Kind of data set: ITC with FIP200 claw domain mutant Y1564A. The conditions noted are these: 20 °C, buffer B pH 7.0, N.D. = no detectable binding. The method, then:
as §1, §2

The target of data set [5] is T3, FIP200 claw domain K1568A (Homo sapiens, UniProt Q8TDY2, K1568A).
T3 construct: human FIP200 claw domain1490–1594 was cloned; SUMO (N, cleaved yes); made in house; host or cells: Escherichia coli Rosetta (DE3)
T3 sequence (Q8TDY2 1490-1594 K1568A): as the sequence (Q8TDY2 1490-1594 Y1564A) above, with A75Y, K79A counted along it
Kind of data set: ITC with FIP200 claw domain mutant K1568A. The conditions noted are these: 20 °C, buffer B pH 7.0, fitted value ± error. The data set is classed as binding. The method, then: as §1, §2

Data set [6] addresses T4, FIP200 claw domain K1569A (Homo sapiens, UniProt Q8TDY2, K1569A).
T4 construct: human FIP200 claw domain1490–1594 was cloned; SUMO (N, cleaved yes); made in house; host or cells: Escherichia coli Rosetta (DE3)
Nature of the data set: ITC with FIP200 claw domain mutant K1569A. The conditions noted are these: 20 °C, buffer B pH 7.0, N.D. = no detectable binding. As to the method:
as §1, §2

For data set [7], the target named is T5, FIP200 claw domain R1573E (Homo sapiens, UniProt Q8TDY2, R1573E).
T5 construct: human FIP200 claw domain1490–1594 was cloned; SUMO (N, cleaved yes); made in house; host or cells: Escherichia coli Rosetta (DE3)
T5 sequence (Q8TDY2 1490-1594 R1573E): as the sequence (Q8TDY2 1490-1594 Y1564A) above, with A75Y, R84E counted along it
Nature of the data set: ITC with FIP200 claw domain mutant R1573E. The conditions noted are these: 20 °C, buffer B pH 7.0, N.D. = no detectable binding. As to the method:
as §1, §2

Data set [8] concerns the target T6, FIP200 claw domain F1574A (Homo sapiens, UniProt Q8TDY2, F1574A).
T6 construct: human FIP200 claw domain1490–1594 was cloned; SUMO (N, cleaved yes); made in house; host or cells: Escherichia coli Rosetta (DE3)
Nature of the data set: ITC with FIP200 claw domain mutant F1574A. The conditions noted are these: 20 °C, buffer B pH 7.0, N.D. = no detectable binding. The method, then: as §1, §2

Data set [9] concerns the target T7, FIP200 claw domain F1582A (Homo sapiens, UniProt Q8TDY2, F1582A).
T7 construct: human FIP200 claw domain1490–1594 was cloned; SUMO (N, cleaved yes); made in house; host or cells: Escherichia coli Rosetta (DE3)
Nature of the data set: ITC with FIP200 claw domain mutant F1582A. The conditions noted are these: 20 °C, buffer B pH 7.0, N.D. = no detectable binding. As to the method:
as §1, §2

For data set [10], the target named is T8, FIP200 claw domain (1490-1594) (human, UniProt Q8TDY2 1490-1594).
T8 construct: the ITC N counts peptide per claw chain; also called FIP200 claw domain WT; WT; source: E. coli Rosetta (DE3), purified (Ni-NTA, Superdex 200, HiTrap SP FF); not shown: SUMO, N-terminal, cleaved
Kind of data set: ITC; peptide (4 mM) injected into FIP200 claw protein (0.25 mM); 20 °C; buffer B (50 mM NaH2PO4, 150 mM NaCl, pH 7.0); single binding site model. (In general: In ITC the heat of successive injections is recorded.)

Data set [11] has as its target T9, FIP200 claw domain (1490-1594) R1514A (human, UniProt Q8TDY2 1490-1594, R1514A).
T9 construct: source: E. coli Rosetta (DE3), purified (Ni-NTA, Superdex 200, HiTrap SP FF); not shown: SUMO, N-terminal, cleaved
Described as above. The conditions noted are these: both partners purified.

Data set [12] addresses T10, FIP200 claw domain (1490-1594) D1516A (human, UniProt Q8TDY2 1490-1594, D1516A).
T10 construct: source: E. coli Rosetta (DE3), purified (Ni-NTA, Superdex 200, HiTrap SP FF); not shown: SUMO, N-terminal, cleaved
The data set is described as above. The following applies: both partners purified.

Data set [13] deals with T11, FIP200 claw domain (1490-1594) Q1566A (human, UniProt Q8TDY2 1490-1594, Q1566A).
T11 construct: source: E. coli Rosetta (DE3), purified (Ni-NTA, Superdex 200, HiTrap SP FF); not shown: SUMO, N-terminal, cleaved
Described as above. The conditions noted are these: both partners purified.

Data set [14] concerns the target T12, FIP200 claw domain (1490-1594) K1568A (human, UniProt Q8TDY2 1490-1594, K1568A).
T12 construct: source: E. coli Rosetta (DE3), purified (Ni-NTA, Superdex 200, HiTrap SP FF); not shown: SUMO, N-terminal, cleaved
The data set is described as above. The conditions noted are these: both partners purified.

The target of data set [15] is T13, human FIP200 claw domain (1490-1594) (human, UniProt Q8TDY2 1490-1594).
T13 chain: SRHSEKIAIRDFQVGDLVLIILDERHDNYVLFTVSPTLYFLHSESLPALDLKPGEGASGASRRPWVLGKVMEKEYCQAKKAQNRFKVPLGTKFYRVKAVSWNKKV
Nature of the data set: ITC.

Data set [16] deals with the molecule itself. Kind of data set: crystal structure; FIP200 claw and TNIP1 FIR peptide mixed at a 1:5 molar ratio, 15 mg/ml; vapor diffusion at 16 °C or 20 °C; molecular replacement.

T7 sequence (Q8TDY2 1490-1594 F1582A): as the sequence (Q8TDY2 1490-1594 Y1564A) above, with A75Y, F93A counted along it
T6 sequence (Q8TDY2 1490-1594 F1574A): as the sequence (Q8TDY2 1490-1594 Y1564A) above, with A75Y, F85A counted along it
T4 sequence (Q8TDY2 1490-1594 K1569A): as the sequence (Q8TDY2 1490-1594 Y1564A) above, with A75Y, K80A counted along it

As for “SSGTSSEFEVVTPEEQ [TNIP1^long, unmodified TNIP1 FIR peptide with an elongated C terminus]”, in [1], the KD entry is “Weak binding”. Moreover, the “a0 (constant of Equation 3, y1 = 1/(1+a0[TNIP1]))” value in [2] turned out to be 0.0006 µM⁻¹.

“human FIP200 claw domain (1490-1594) (from UniProt Q8TDY2) Q1566A”: in [3], the ratio to parent was 0.79.

Regarding `CC(C)[C@H](NC(=O)[C@@H](NC(=O)[C@H](CCC(=O)O)NC(=O)[C@H](Cc1ccccc1)NC(=O)[C@H](CCC(=O)O)NC(=O)[C@H](COP(=O)(O)O)NC(=O)[C@H](CO)NC(=O)[C@@H](NC(=O)CNC(=O)[C@H](CO)NC(=O)[C@@H](N)CO)[C@@H](C)O)C(C)C)C(=O)O` [TNIP1_pS123] (H-SSGTS[pS]EFEVV-OH), the KD result in [4] is “significantly abolished”; in data set [5], “Weak binding”; in data set [6] it was “significantly abolished”; in [7], “significantly abolished”; in [8], “significantly abolished”; in data set [9], “significantly abolished”.

With SSGTSSEFEVV [TNIP1], the KD entry in data set [1] is “no detectable binding affinity”.

B1: pCCPG1 FIR2 peptide (peptide)
peptide: TASDD[pS]DIVTLEPPK
notes: FIR2 motif of the autophagy receptor CCPG1; source: synthetic peptide (GL Biochem, Shanghai)
For the molecule B1, in data set [10] (both partners purified), the Kd turned out to be 9.3 µM and the “stoichiometry N” value was 1.1.

B2: TNIP1_pS123^long peptide (peptide)
peptide: SSGTS[pS]EFEVVTPEEQ
notes: FIR motif of TNIP1 with an elongated C terminus (T129-Q133); source: synthetic peptide (GL Biochem, Shanghai)
Regarding B2, the Kd in data set [10] (both partners purified) was determined as 45.4 µM; in [11], 43.8 µM; in data set [12] it was 35 µM; in data set [13] it was 45 µM; in data set [14], 133 µM. For the same molecule, the “stoichiometry N” value in [10] (both partners purified) worked out at 1.03; in data set [11], 0.97; in data set [12], 0.98; in data set [13] it was 0.96; in [14], 0.93.

The molecule SSGT[pS][pS]EFEVV [TNIP1_pS122pS123 peptide] showed a Kd in [15] of 195 µM. This molecule also returned a stoichiometry N in data set [10] of 1.33.

The molecule SSGT[pS]SEFEVV [TNIP1_pS122 peptide] displayed a Kd in data set [15] of 260 µM. In data set [10], this molecule had a stoichiometry N of 0.96.

B3: CCPG1 FIR2 peptide (unmodified) (peptide)
peptide: TASDDSDIVTLEPPK
notes: as for B1
Consider B3, for which, in data set [10] (both partners purified), the Kd came to 84.3 µM and the “stoichiometry N” value is 0.96.

B4: human FIP200 claw domain (1490-1594) (domain or fragment, UniProt Q8TDY2 1490-1594, looked up)
chain: T13 chain
notes: Forms a homodimer in the crystals; source: E. coli Rosetta (DE3), purified (Ni-NTA, Superdex 200, HiTrap SP FF); not shown: SUMO, N-terminal, cleaved
Regarding B4, the binding result in data set [16] is recorded as “binds”.

B5: TNIP1_pS123 peptide (peptide)
peptide: SSGTS[pS]EFEVV
notes: FIR motif of TNIP1; source: synthetic peptide (GL Biochem, Shanghai)
Regarding B5, the Kd in [15] stood at 160 µM; in data set [11], 178 µM; in data set [12], 175 µM; in data set [13] it was 126 µM. For the same molecule, the stoichiometry N in data set [10] was 1.01; in data set [11] it was 1.48; in [12] it was 1.18; in data set [13], 1.49.
